Numbering of substitutions follows the chain as printed.
Columns and labels:
[1] = biological target: T1, Goodpasture antigen-binding protein (GPBP) (Homo sapiens, UniProt Q9Y5P4); assay: […] in vitro autophosphorylation of purified multimeric GPBP at […] T12; FPLC-SEC shift of GPBP oligomers (BSA control unaffected); assay type: biochemical
T1 construct: gene CERT1; FLAG-tagged recombinant GPBP multimer (77-kDa GPBP isoform); also native extracellular A427 GPBP
T1 sequence (Q9Y5P4 1-624): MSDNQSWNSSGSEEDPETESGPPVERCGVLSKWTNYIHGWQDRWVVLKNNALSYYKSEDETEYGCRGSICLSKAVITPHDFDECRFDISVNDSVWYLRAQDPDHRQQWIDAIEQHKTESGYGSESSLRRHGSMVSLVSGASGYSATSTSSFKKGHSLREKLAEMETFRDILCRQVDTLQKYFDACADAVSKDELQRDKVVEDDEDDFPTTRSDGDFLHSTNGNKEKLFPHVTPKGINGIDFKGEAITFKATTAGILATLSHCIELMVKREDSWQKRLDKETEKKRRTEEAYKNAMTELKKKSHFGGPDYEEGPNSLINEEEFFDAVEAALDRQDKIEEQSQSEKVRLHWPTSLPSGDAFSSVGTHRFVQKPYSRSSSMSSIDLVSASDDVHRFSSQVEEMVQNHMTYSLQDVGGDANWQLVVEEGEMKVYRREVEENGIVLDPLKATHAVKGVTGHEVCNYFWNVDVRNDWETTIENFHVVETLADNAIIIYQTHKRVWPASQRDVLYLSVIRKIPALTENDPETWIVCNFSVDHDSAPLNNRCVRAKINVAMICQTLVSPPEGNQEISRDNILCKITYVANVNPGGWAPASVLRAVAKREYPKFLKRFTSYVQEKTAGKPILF

GPBP (FLAG-GPBP) = biological target: T2, GPBP (FLAG-GPBP) (Homo sapiens, UniProt Q9Y5P4); assay: […] in vitro autophosphorylation of FLAG-GPBP (Figure 9G); assay type: biochemical
T2 construct: gene CERT1; FLAG-GPBP
T2 sequence (Q9Y5P4 1-624): T1 sequence (Q9Y5P4 1-624)

[2] = biological target: the molecule itself; assay: SEC; FPLC-SEC on Superdex 200 of FLAG-GPBP purified from Sf9 culture media; calibrators thyroglobulin, aldolase, human serum albumin
[3] = biological target: the molecule itself; assay: SEC; GPBP affinity-purified from culture media of A427 and A549 cells (scFvN26 column, native elution with peptide PS132), FPLC-SEC on Superdex 200, fractions read by indirect ELISA with anti-GPBP mAb
[4] = biological target: the molecule itself; assay: SEC; HPLC-SEC on TSKgel G4000SW of purified yeast recombinant FLAG-tagged polypeptides

For `COc1ccc(-c2ccc(-c3cccc(C)c3)c(C)c2)c(CCC(=O)O)c1` [T12, 3-[4″-methoxy-3,2′-dimethyl-(1,1′;4′,1″)terphenyl-2″-yl]propionic acid], the “32P in vitro autophosphorylation of purified multimeric GPBP at 50 μM T12; FPLC-” value [1] was “T12 reduced autophosphorylation of recombinant multimer but did not affect the recombinant GPBP trimer autophosphorylation activity”.

For `COc1cccc2c1C(=O)c1c(O)c3c(c(O)c1C2=O)C[C@@](O)(C(=O)CO)C[C@@H]3O[C@H]1C[C@H](N)[C@H](O)[C@H](C)O1` [doxorubicin], the “32P in vitro autophosphorylation of FLAG-GPBP (Figure 9G)” value (GPBP (FLAG-GPBP)) was “it was shown the existence of GPBP species sensitive to doxorubicin (Figure 9G)”.

B1: FLAG-tagged GPBP (Goodpasture antigen-binding protein), extracellular pool from Sf9 cells (natural protein, human, UniProt Q9Y5P4 1-624, looked up)
chain: T1 sequence (Q9Y5P4 1-624)
notes: Constructs may be described in the extended methods (Supplementary Materials); also called FLAG-GPBP; extracellular GPBP
B1: binds [2].

B2: native extracellular GPBP isolated from the culture media of human NSCLC cells (A427, A549) (natural protein, human (endogenous in A427 and A549), UniProt Q9Y5P4 1-624, looked up)
chain: T1 sequence (Q9Y5P4 1-624)
notes: also called native extracellular A427 GPBP; mesenchymal GPBP
B2: binds [3].

B3: yeast recombinant FLAG-tagged GPBP-Ala264 (natural protein, human, UniProt Q9Y5P4 1-624, looked up)
chain: T1 sequence (Q9Y5P4 1-624) with E264A
notes: Mainly trimeric by SEC, with traces of higher and lower MW materials; source: yeast, purified
For B3, the “stoichiometry N” value [4] was 3.

B4: yeast recombinant FLAG-tagged GPBP (natural protein, human, UniProt Q9Y5P4 1-624, looked up)
chain: T1 sequence (Q9Y5P4 1-624)
notes: also called FLAG-GPBP
B4: binds [4].
